Non-standard residues stand in square brackets, D forms with d. No end group written: not given here. pY = N[C@@H](Cc1ccc(OP(=O)(O)O)cc1)C(=O)O
How the values were obtained:
[1] = test system: Bcl-xL overexpressing U266 cells; experiment: Drug-induced apoptosis in U266 cells overexpressing Bcl-xL; type: cell-based, human; conditions: stable U266 clones overexpressing Bcl-xL; 24 h for melphalan and mitoxantrone
Protocol: FIG. 23 Enforced Overexpression of Bcl-x Confers Resistance to Chemotherapy. Panel A: U266 cells are transfected with a CMV expression vector encoding Bcl-x, tagged with the FLAG epitope. Several stable, independent clones overexpressing Bcl-xL, as well as empty vector controls (Neo), are isolated and analyzed by Western blot with antibodies to Bcl-xL, or the FLAG epitope tag. B: The indicated cell lines are incubated with either melphalan (LPAM) or mitoxantrone for 24 h, and apoptosis is monitored by AnnexinV-FITC staining and flow cytometry. Overexpression of Bcl-xL protects the cells from chemotherapy-induced apoptosis.
These Bcl-xL overexpressing cells are resistant to apoptosis induced by AG490, as predicted since the ectopic Bcl-xL is expressed from a CMV promoter and is thus independent of JAK-STAT signaling. […] These findings support one embodiment of the present invention, that Bcl-x confers resistance to chemotherapy-induced apoptosis, and therefore that inhibition of STAT3 signaling promotes chemotherapy-induced apoptosis.

Full length STAT3 = molecular target: T1, Full length STAT3 (Homo sapiens, UniProt P40763); experiment: Phage display panning, 12-mer peptide library, on full-length GST-Stat3; type: binding
T1 construct: Full-length GST-Stat3, immobilized to glutathione-Sepharose beads, is used to screen a display peptide library; made in house; host or cells: E. coli
From the text: Phage display peptide libraries are used because of two powerful features. First, phage libraries generate an enormous diversity of peptides that can be subjected to affinity selection by panning. […] These combinatorial libraries are based on random short peptide sequences fused to a coat protein of bacteriophage, herein pIII of the filamentous coliphage MI3. Panning of the peptide library using an immobilized target, herein STAT3 fusion proteins bound onto beads, is used to select for peptide sequences that bind to STAT3. […] Peptide sequences that occur at elevated frequencies are good candidates for ST4T3-specific binding peptides. […] These cyclic peptides have the advantage of reducing entropic freedom, thereby potentially increasing binding specificity and affinity relative to linear peptides. Another variation on this approach is to combine “affinity maturation” with the phage display peptide library [Scott & Smith, 1990, Science, 249:386-390].
The GST-Stat3 fusion protein is purified on glutathione-Sepharose beads according to standard methods. The first library screened is obtained from a commercial source (New England Biolabs) and consists of random 12 amino acid sequences with a complexity of 1.9×10^9 independent transformants, each theoretically represented approximately 70 times in 1.4×10^11 phage particles. […] This is due to the inability of peptidases to cleave adjacent to proline residues in the peptide leader sequence, which is required for secretion. The titer of the original phage library after one round of amplification is 1.4×10^13 pfu/ml (plaque forming units per ml).
For panning phage with the STAT3 fusion protein, 50 ul of glutathione-Sepharose beads bound to purified GST-Stat3 fusion protein are washed with phosphate buffered saline (PBS). The beads are then incubated with 10 ul of phage suspension (1.4×10^11 virions) in 200 ul final volume of PBS for 30 min at room temperature with occasional mixing. The beads are gently pelleted in a microcentrifuge, and washed 10 times with 1 ml of PBS to remove unbound phage. Background of non-specifically bound phage is reduced by a variety of methods, including pre-blocking the beads with bovine serum albumin, pre-clearing the phage library with GST-glutathione-Sepharose beads, and washing the beads with increasing salt concentrations. Bound phage virions are eluted from the beads by incubation with a molar excess of glutathione for 30 min at room temperature. A small aliquot of the phage eluate is titered and the rest is amplified on the E. coli ER2537 host strain. Following amplification, the phage are purified by polyethylene glycol (PEG) precipitation and then the titer is determined again. Using 1-2×10^11 phage particles from the amplified eluate as input, the above binding and amplification steps are repeated a total of 3 to 4 times. After the final titering step, 40-100 isolated plaques are amplified for DNA sequencing to identify a consensus binding sequence. Sequence analysis is performed by automated sequencing on a Pharmacia ALF sequencer.
Full-length GST-Stat3, immobilized to glutathione-Sepharose beads, is used to screen a display peptide library containing 1.9×10^9 random 12-mer peptides positioned at the N-terminus of a minor coat protein (pIII) of the M13 filamentous bacteriophage. Based on their frequencies shown in Table 1, the five most promising peptides from a 12-mer peptide library that bind to full-length STAT3 are listed.

STAT3 = molecular target: T2, STAT3 (Homo sapiens, UniProt P40763); experiment: Disruption of STAT3 DNA-binding activity in vitro by synthetic peptides; conditions: ne = no effect
T2 construct: made in house; host or cells: Sf9 insect cells co-infected with baculoviruses for STAT3 and Src or Fes (cell extracts)
From the text: A novel non-radioactive, 96-well plate based assay is used for measuring STAT3 DNA-binding activity (FIG. 30). In this high throughput assay, a biotinylated hSIE probe is used in place of the ^32P-labeled hSIE probe used for EMSA to detect binding of STAT3 dimers. The hSIE oligonucleotide is a high-affinity mutant of the original sis-inducible element in the C-fos gene promoter that binds STAT3. The biotinylated hSIE probe is immobilized onto a streptavidin-coated 96-well plate, permitting a large number of compounds and concentrations to be tested in a single experiment. The source of activated STAT3 is extracts derived from Sf9 insect cells co-infected with baculoviruses encoding STAT3 and either the Src or Fes tyrosine kinases. Using this baculovirus expression system, high levels of activated STAT3 dimers are produced as a result of phosphorylation by the co-expressed tyrosine kinases. Activated STAT3 is added to the 96-well plate in the presence or absence of the compounds to be screened. After incubation for 30 min with compounds, STAT3 dimers that bind to the biotinylated hSIE probe are detected with an anti-Stat3 primary antibody (Santa Cruz Biotechnology) followed by a horseradish-peroxidase conjugated secondary antibody. Immune complexes are detected by colorimetric conversion of the substrate, 3,3′,5,5′-tetramethylbenzidine (TMB) peroxidase, using a conventional ELISA plate reader. Epitope tagged versions of STAT3 expressed from baculoviruses have also been generated that are detected using the cognate primary antibodies. We find these anti-tag antibodies to be more sensitive and/or specific.
To facilitate these high throughput, 96-well plate assays, the screening is automated using an available Beckman 2000 Biotek robotics workstation coupled to an ELISA plate reader. The computer-programmed robotics workstation has multi-volume, multi-component mixing capability that greatly accelerates all of the high throughput assays. Inhibition of STAT3 DNA-binding activity in this assay is readily detected as a loss of signal relative to the controls without added compound. As a positive control and to establish the DNA-binding specificity, activated STAT3 is added in the presence of either excess free hSIE oligonucleotide for competition or a non-binding oligonucleotide, FIRE. […] As a negative control, extracts from IFNa-stimulated cells are used as a source of STAT1, which also binds the hSIE. Initial screens are performed at high concentrations of compounds (e.g., 100 uM), and active compounds are further tested in concentration-response studies.
A total of 19 synthetic peptides are tested based on the PY*LKTK sequence (Y*=phosphotyrosine) and their IC50 is determined in terms of disruption of STAT3 DNA-binding activity in vitro (Table 3).

MPC11 tumors = experiment: MPC11 myeloma tumor growth in vivo; design: species or system BALB/c mice; conditions: MPC11 tumor-bearing mice, rIL-12 alone, 200 ng every second day
Protocol: Mice and tumor formation in vivo. Six- to eight-week old female BALB/c mice are obtained from the National Cancer Institute (Frederick, Md.). Cohorts of 3-5 mice per group are used for these experiments. Mice are shaved on the right flank and injected subcutaneously (s.c.) with 5×10^5 of either MOPC or MPC11 cells in […] of PBS to induce tumors.
In vivo treatment with AG-490 and IL-12. When tumors reach about 5 […] in diameter, AG-490 treatment of tumors is initiated and continued daily for 7-10 days. For MOPC tumors, injections of 0.85 mg/day of AG-490 are given intratumorally, supplemented with 0.5 mg/day of AG-490 i.p. For MPC11 tumors, the intratumoral treatment is halved while the i.p. dose remains the same. Control mice receive 50% DMSO vehicle alone in the same volume as the AG-490 treatment group. Recombinant IL-12 is given s.c. at either 100 ng or 200 ng every other day. Tumor growth is monitored daily by measuring two perpendicular tumor diameters with a caliper, and tumor volume was calculated according to the formula V=0.52*a*b(a+b)/2 (a=smallest superficial diameter; b=largest superficial diameter).

U266 cells = experiment: Fas-mediated apoptosis (Annexin V, flow cytometry) in U266 cells; type: cell-based, human; conditions: 500 ng/ml CH-11 or 100 ng/ml Fas ligand
Protocol: For surface detection of the Fas receptor, 10^6 cells are suspended in […] PBS with 2.5 mg/ml mouse IgM (Sigma) and […] UB2 antibody (MBL) or IgG1, isotype control serum (Dako). Following 30 min incubation at room temperature, cells are washed with PBS, and incubated in the dark for 30 min with goat anti-mouse Ig-FITC. Fluorescence is measured on a FACScan flow cytometer and analyzed using CellQuest software (Becton Dickinson). For cell cycle analysis, 10^6 cells are fixed in ice-cold ethanol for a minimum of 2 h, washed with PBS, and stained with 5 mg/ml propidium iodide (PI) and […] at 37° C. for 30 min prior to analysis by flow cytometry. […] Apoptosis is measured by staining with Annexin V-FITC (Clontech) and flow cytometry analysis. Fas-specific death is calculated as (% Annexin V positive cells in the CH-11 treated population)−(% Annexin V positive cells in the IgM control population). Programmed cell death in cells transfected with the bicistronic green fluorescent protein vectors (pIRES-EGFP or pIRES-Stat3b) is analyzed after staining with Annexin V-PE (Pharmingen) by two color flow cytometry analysis. Apoptotic morphology of DAPI-stained nuclei and green/red fluorescence is confirmed by fluorescence microscopy.

T1 sequence (P40763 whole entry, species assumed): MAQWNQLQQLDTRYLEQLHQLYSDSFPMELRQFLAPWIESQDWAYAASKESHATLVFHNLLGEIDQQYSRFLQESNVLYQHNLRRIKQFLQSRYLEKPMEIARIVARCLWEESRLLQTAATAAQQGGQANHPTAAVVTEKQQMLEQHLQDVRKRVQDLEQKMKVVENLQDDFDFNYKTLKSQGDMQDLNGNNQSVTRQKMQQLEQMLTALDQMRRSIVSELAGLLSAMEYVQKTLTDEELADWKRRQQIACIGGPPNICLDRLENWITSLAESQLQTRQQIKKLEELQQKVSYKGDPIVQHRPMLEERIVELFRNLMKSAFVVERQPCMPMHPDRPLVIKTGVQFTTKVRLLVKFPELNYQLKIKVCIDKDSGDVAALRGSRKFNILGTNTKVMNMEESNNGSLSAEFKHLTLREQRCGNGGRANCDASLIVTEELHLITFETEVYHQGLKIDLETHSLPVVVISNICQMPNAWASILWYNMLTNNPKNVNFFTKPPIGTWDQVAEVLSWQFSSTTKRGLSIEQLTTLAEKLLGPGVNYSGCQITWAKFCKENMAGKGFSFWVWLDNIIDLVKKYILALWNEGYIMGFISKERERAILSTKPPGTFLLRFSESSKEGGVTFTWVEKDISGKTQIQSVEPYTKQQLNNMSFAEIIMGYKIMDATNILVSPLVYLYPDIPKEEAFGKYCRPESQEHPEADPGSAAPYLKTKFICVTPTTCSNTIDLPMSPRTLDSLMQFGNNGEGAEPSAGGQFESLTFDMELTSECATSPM
T2 sequence (P40763 whole entry, species assumed): as above

Row | Frequency (out of 100 clones) (Full length STAT3) | IC50, disruption of STAT3 DNA-binding activity (STAT3) | Molecule | other results
1 | 8% |  | FSYPLTRAPLNM (listed as Homo sapiens) | 
2 | 25% |  | HY(S/P)PILVYQPSW | 
3 |  | ne | PY*AKTK (P[pY]AKTK; listed as Homo sapiens) [synthetic peptide, Y* = phosphotyrosine] | 
4 |  | ne | PYLKTK [synthetic peptide, unphosphorylated] | 
5 | 9% |  | SHPWNAQRELSV (listed as Homo sapiens) | 
6 |  | ne | Y*LK ([pY]-Leu-Lys; listed as Homo sapiens) [synthetic peptide, Y* = phosphotyrosine] | 
7 | 8% |  | YPAPQPLVTKTS (listed as Homo sapiens) | 

More lines, now with the values behind:

Row | Molecule | Frequency (out of 100 clones) (Full length STAT3) | IC50, disruption of STAT3 DNA-binding activity (STAT3) | other results
8 | N[C@@H](Cc1ccc(N(CCCl)CCCl)cc1)C(=O)O [melphalan] |  |  | apoptosis induced in Bcl-xL overexpressing cells [1]: resistant
9 | O=C1c2c(O)ccc(O)c2C(=O)c2c(NCCNCCO)ccc(NCCNCCO)c21 [mitoxantrone] |  |  | apoptosis induced in Bcl-xL overexpressing cells [1]: resistant
10 | PFLKTK |  | ne | 
11 | QDVHLTQQSRYT (listed as Homo sapiens) | 13% |  | 
12 | rIL-12: recombinant IL-12 (Genetics Institute) (protein, UniProt P29459 23-219; P29460 23-328, looked up) Interleukin-12 subunit alpha: RNLPVATPDPGMFPCLHHSQNLLRAVSNMLQKARQTLEFYPCTSEEIDHEDITKDKTSTVEACLPLELTKNESCLNSRETSFITNGSCLASRKTSFMMALCLSSIYEDLKMYQVEFKTMNAKLLMDPKRQIFLDQNMLAVIDELMQALNFNSETVPQKSSLEEPDFYKTKIKLCILLHAFRIRAVTIDRVMSYLNAS Interleukin-12 subunit beta: IWELKKDVYVVELDWYPDAPGEMVVLTCDTPEEDGITWTLDQSSEVLGSGKTLTIQVKEFGDAGQYTCHKGGEVLSHSLLLLHKKEDGIWSTDILKDQKEPKNKTFLRCEAKNYSGRFTCWWLTTISTDLTFSVKSSRGSSDPQGVTCGAATLSAERVRGDNKEYEYSVECQEDSACPAAEESLPIEVMVDAVHKLKYENYTSSFFIRDIIKPDPPKNLQLKPLKNSRQVEVSWEYPDTWSTPHSYFSLTFCVQVQGKSKREKKDRVFTDKTSATVICRKNASISVRAQDRYYSSSWSEWASVPCS |  |  | tumor growth (MPC11 tumors): only slightly inhibits
13 | Fas ligand: Fas ligand (Alexis) (protein, UniProt P48023 130-281, looked up) Tumor necrosis factor ligand …: QIGHPSPPPEKKELRKVAHLTGKSNSRSMPLEWEDTYGIVLLSGVKYKKGGLVINETGLYFVYSKVYFRGQSCNNLPLSHKVYMRNSKYPQDLVMMEGKMMSYCTTGQMWARSSYLGAVFNLTSADHLYVNVSELSLVNFEESQTFFGLYKL |  |  | Fas-mediated cell death (U266 cells): completely resistant

Reference: patent US9345682B2, “Inhibition of STAT3 signal transduction for human cancer therapy” (University of South Florida, priority 1999, dated 2016)
